How the values were obtained:
[1] = target: antibodies of human serum sample 295 (HCV-negative serum with interference) (human); experiment: Vidas anti-HCV immunoassay: index of the serum on coated HCV Core/NS3/NS4 antigens with 1 ug/ml peptide added (competition)
[2] = target: antibodies of human serum sample F25 (HCV-negative serum with interference) (human); experiment: as above
[3] = target: anti-HCV antibodies of positive control sample C1 (commercial serum pool, Trina Bioreactives AG); experiment: Vidas anti-HCV immunoassay: index of the positive control on coated HCV Core/NS3/NS4 antigens with 1 ug/ml peptide added (competition)
[4] = target: anti-HCV antibodies of positive control sample C1 (commercial serum pool, Trina Bioreactives AG); experiment: Vidas anti-HCV immunoassay: index of the positive control on coated HCV Core/NS3/NS4 antigens with 5 ug/ml peptide added (competition)
[5] = target: antibodies of human serum sample H48 (HCV-negative serum with interference) (human); experiment: Vidas anti-HCV immunoassay: index of the serum on coated HCV Core/NS3/NS4 antigens with 5 ug/ml peptide added (competition)
[6] = target: antibodies of human serum sample 284 2408 (HCV-negative serum with interference) (human); experiment: as above
[7] = target: antibodies of human serum sample 498 (HCV-negative serum with interference) (human); experiment: as above
[8] = target: antibodies of human serum sample F53 3009 (HCV-negative serum with interference) (human); experiment: as above
[9] = target: antibodies of human serum sample 801 1409 (HCV-negative serum with interference) (human); experiment: as above
[10] = target: antibodies of human serum sample M43 (HCV-negative serum with interference) (human); experiment: as above
[11] = target: antibodies of human serum sample 175 1811 (HCV-negative serum with interference) (human); experiment: as above

Binder | Index [1] [index] | Index [2] [index] | Index [3] [index] | Index [4] [index] | Index [5] [index] | Index [6] [index] | Index [7] [index] | Index [8] [index] | Index [9] [index] | Index [10] [index] | Index [11] [index]
AQKRLAPYIE [peptide A8E (Streptococcus pneumoniae)] | 0.95 | 0.41 | 3.02 |  |  |  |  |  |  |  | 
VSPTHYVPE [peptide V7E (HCV)] |  |  |  | 3.06 | 1.17 | 1.51 | 0.35 | 0.39 | 1.04 | 0.42 | 0.49
APYIEKGM [peptide A6M (Streptococcus pneumoniae)] | 1.04 | 2.9 | 3.05 |  |  |  |  |  |  |  | 
YSPTHYVPE [peptide Y7E-1 (Staphylococcus aureus)] |  |  |  | 3.02 | 0.88 | 0.86 | 0.14 | 0.32 | 0.71 | 0.17 | 0.47
ECSQHLPYIE [peptide E8E (HCV)] | 0.9 | 0.85 | 2.92 |  |  |  |  |  |  |  | 
